# Measurements reported in paper PMC2132596.
# Tests used:
# [1] = target: human P-cadherin–Fc fusion protein (human) (UniProt P22223); assay: cell adhesion assay
# [2] = target: purified human IgG1 (human); assay: cell adhesion assay
# Sequence of human P-cadherin–Fc fusion protein (human) (P22223 108-654): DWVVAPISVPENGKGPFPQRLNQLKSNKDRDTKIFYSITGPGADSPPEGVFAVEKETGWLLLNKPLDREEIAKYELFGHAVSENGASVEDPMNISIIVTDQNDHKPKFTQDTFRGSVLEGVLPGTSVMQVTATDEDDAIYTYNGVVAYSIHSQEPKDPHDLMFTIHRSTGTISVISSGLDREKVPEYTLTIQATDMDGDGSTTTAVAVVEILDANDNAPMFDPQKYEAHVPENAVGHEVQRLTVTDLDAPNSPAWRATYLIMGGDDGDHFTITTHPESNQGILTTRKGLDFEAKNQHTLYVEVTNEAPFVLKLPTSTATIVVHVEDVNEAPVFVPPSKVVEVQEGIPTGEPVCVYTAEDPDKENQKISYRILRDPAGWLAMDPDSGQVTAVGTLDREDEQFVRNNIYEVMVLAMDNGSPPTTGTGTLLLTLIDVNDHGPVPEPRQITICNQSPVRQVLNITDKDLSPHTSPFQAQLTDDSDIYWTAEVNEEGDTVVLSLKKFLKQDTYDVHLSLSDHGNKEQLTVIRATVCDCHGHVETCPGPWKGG
fold more coated fusion protein needed than of E-cadherin–Fc [1] [fold],percent of cells adhering at 500 ng/well [1] [%],percent of cells adhering [2] [%],Substance
> 100,40,–,integrin αEβ7 of cultured human intestinal intraepithelial lymphocytes (from UniProt P38570 19-1179; P26010 20-798) (complex)
–,–,< 3,αEβ7 on JY′ cells transfected with full-length human αE (JY′-αE) (from UniProt P38570 19-1179; P26010 20-798) (complex)
